First the molecules themselves.
B1: 64 (VHH)
VHH: QVQLVESGGGLVQAGGSLRLSCAASGFPVYNRYMLWYRQAPGKEREWVAAITSYGYHTTYADSVKGRFTISRDNAKNTVYLQMNSLKPEDTAVYYCNVKDYGQHQQVYDYWGQGTQVTVS
B2: 63 (VHH)
VHH: QVQLVESGGGLVQAGGSLRLSCAASGFPVNAEIMFWYRQAPGKEREWVAAIKSAGTTTLYADSVKGRFTISRDNAKNTVYLQMNSLKPEDTAVYYCNVKDYGAQAHYYDYWGQGTQVTVS
B3: 56 (VHH)
VHH: QVQLVESGGGLVQAGGSLRLSCAASGFPVEMWSMEWYRQAPGKEREWVAAIMSFGYQTWYADSVKGRFTISRDNAKNTVYLQMNSLKPEDTAVYYCNVKDAGNSKALYDYWGQGTQVTVS
B4: 32 (VHH)
VHH: QVQLVESGGGLVQAGGSLRLSCAASGFPVAHKSMWWYRQAPGKEREWVAAIESTGDTTRYADSVKGRFTISRDNAKNTVYLQMNSLKPEDTAVYYCVVWVGEVYRGQGTQVTVS
B5: 44 (VHH)
VHH: QVQLVESGGGLVQAGGSLRLSCAASGFPVERKHMLWYRQSPGKEREWVAAIVSYGNYTTYADSVKGRFTISRDNAKNTVYLQMNSLKPEDTAVYYCNVKDHGFNTVLYDYWGQGTQVTVS
B6: 33 (VHH)
VHH: QVQLVESGGGLVQAGGSLRLSCAASGFPVKTAEMEWYRQAPGKEREWVAAISSTGKSTFYADSVKGRFTISRDNAKNTVYLQMNSLKPEDTAVYYCHVYVGRTYIGQGTQVTVS
B7: 39 (VHH)
VHH: QVQLVESGGGPVQAGGSLRLSCAASGFPVMWSHMHWYRQAPGKEREWVAAIVSYGAYTIYADSVKGRFTISRDNAKNTVYLQMNSLKPEDTAVYYCNVKDFGGYRYYYDYWGQGTQVTVS
B8: 62 (VHH)
VHH: QVQLVESGGGLVQAGGSLRLSCAASGFPVEQEHMYWYRQASGKEREWVAAIVSEGAYTAYADSVKGRFTISRDNAKNTVYLQMNSLKPEDTAVYYCNVKDWGGYQWYYDYWGQGTQVTVS
B9: 30 (VHH)
VHH: QVQLVESGGGLVQAGGSLRLSCAASGFPVWYKEMEWYRQAPGKEREWVAAITSAGHHTYYADSVKGRFTISRDNAKNTVYLQMNSLKPEDTAVYYCYVYVGESYIGQGTQVTVS
B10: 31 (VHH)
VHH: B9 VHH with Y31S, K32A, E35T, T52N, A54H, H56R, H57I, Y59E, S85G, E102K
B11: 51 (VHH)
VHH: QVQLVESGGGLVQAGGSLRLSCAASGFPVKETWMHWYRQAPGKEREWVAAITSFGYKTYYADSVKGRFTISRDNAKNTVYLQMNSLKPEDTAVYYCNVKDAGDVTHQYDYWGQGTQVTVS
B12: 68 (VHH)
VHH: QVQLVESGGGSVQAGGSLRLSCAASGTITNIGYLGWFRQAPGKEREGVAALKTYDGYTYYADSVKGRFTVSLDNAKNTVYLQMNSLKPEDTALYYCAAARHGRDEPLSYMYYSYWGQGTQVTVS
B13: 36 (VHH)
VHH: QVQLVESGGGLVQAGGSLRLSCAASGFPVEWKHMTWYRQAPGKEREWVAAIASTGAYTHYADSVKGRFTISRDNAKNTVYLQMNSLKPEDTAVYYCNVKDWGSKTTYYDYWGQGTQVTVS
B14: 50 (VHH)
VHH: B8 VHH with E30Q, Q31Y, Y35H, S41P, A59H, G103W, Y104L, Q105A, W106Q
B15: 38 (VHH)
VHH: B13 VHH with E30Y, K32A, A52V, T54S, H59A, W101F, S103T, K104Q, T105E, T106H
B16: 67 (VHH)
VHH: B13 VHH with E30M, K32A, T35A, A52V, T54A, S103T, K104Y, T105N, T106S
B17: 47 (VHH)
VHH: B13 VHH with E30V, K32A, T35H, A52T, T54E, Y57H, H59I, S103T, K104Y, T105S
B18: 43 (VHH)
VHH: B13 VHH with K32T, T35H, T54S, H59V, K104Q, T105D, T106R
B19: 41 (VHH)
VHH: B13 VHH with W31H, K32Q, T35H, A52V, A56H, H59I, S103D, K104T, T105S, T106Q
B20: 49 (VHH)
VHH: B13 VHH with E30H, W31Y, K32T, T35H, T54S, H59V, S103T, K104Y, T105N
B21: 57 (VHH)
VHH: QVQLVESGGGLVQAGGSLRLSCAASGFPVEHDHMHWYRQAPGKEREWVAAIVSQGAYTVYADSVKGRFTISRDNAKNTVYLQMNSLKPEDTAVYYCNVKDWGRAGARYDYWGQGTQVTVS
B22: 53 (VHH)
VHH: QVQLVESGGGLVQAGGSLRLSCAASGFPVYATVMHWYRQAPGKEREWVAAIYSTGMWTLYADSVKGRFTISRDNAKNTVYLQMNSLKPEDTAVYYCNVKDEGYDYYYYDYWGQGTQVTVS
B23: 48 (VHH)
VHH: QVQLVESGGGLVQAGGSLRLSCAASGFPVAHWWMEWYRQAPGKEREWVAAIFSEGNWTHYADSVKGRFTISRDNAKNTVYLQMNSLKPEDTAVYYCNVKDTGATQFAYDYWGQGTQVTVS
B24: 37 (VHH)
VHH: QVQLVESGGGLVQAGGSLRLSCAASGFPVYNTWMEWYRQAPGKEREWVAAITSYGFHTYYADSVKGRFTISRDNAKNTVYLQMNSLKPEDTAVYYCNVKDEGNTTAYYDYWGQGTQVTVS
B25: 61 (VHH)
VHH: B24 VHH with Y30Q, N31H, T32E, F56Y, H57R, E101T, N103T, T104Y, T105Q, Y107W
B26: 45 (VHH)
VHH: B24 VHH with Y30A, N31G, F56Y, H57R, N103K, T104S, T105S, A106Q, Y107V
B27: 52 (VHH)
VHH: B11 VHH with K30N, E31Y, T32N, H35E, F54W, A101E, D103M, V104W, T105Q, Q107Y
B28: 66 (VHH)
VHH: B24 VHH with V29E, Y30V, F56Y, H57R, N103S, T104Q, T105S, A106W, Y107A
B29: 54 (VHH)
VHH: B24 VHH with Y30W, H57K, T104S, T105Q, A106S, Y107H
B30: 40 (VHH)
VHH: B24 VHH with Y30Q, N31G, Y54V, F56Y, H57R, N103A, T104I, T105A, A106K, Y107N
B31: 58 (VHH)
VHH: QVQLVESGGGLVQAGGSLRLSCAASGFPVDAAWMEWYRQAPGKEREWVAAITSYGYRTYYADSVKGRFTISRDNAKNTVYLQMNSLKPEDTAVYYCNVKDMDRWRTTYDYWGQGTQVTVS
B32: 35 (VHH)
VHH: QVQLVESGGGLVQAGGSLRLSCAASGFPVNYTIMFWYRQAPGKEREWVAAIKSTGEHTLYADSVKGRFTISRDNAKNTVYLQMNSLKPEDTAVYYCNVKDAGQGWQEYDYWGQGTQVTVS
B33: 46 (VHH)
VHH: B32 VHH with Q39K, T54H, E56A, H57T, A101V, Q103N, G104D, W105Q, Q106K, E107S
B34: 60 (VHH)
VHH: QVQLVESGGGLVQAGGSLRLSCAASGFPVVAWQMTWYRQAPGKEREWVAAIRSFGVSTHYADSVKGRFTISRDNAKNTVYLQMNSLKPEDTAVYYCNVKDWGYEYEGYDYWGQGTQVTVS

Residue numbers refer to the chain shown, from its start.

For this test, the target named is SARS-CoV-2 spike receptor-binding domain (2019-nCoV RBD-SD1, residues 319–566) (SARS-CoV-2, UniProt P0DTC2).
Regarding B1, the binding result is recorded as “binds”. With B2 the entry was “binds”. With B3 the entry was “binds”; with B4, “binds”; with B5, “binds”. Under B6 stands “binds”; under B7, “binds”.

For the molecule B8, the binding result was “binds”. With B9 the entry was “binds”.

With B10, the binding result is on record as “binds”. Under B11 stands “binds”; under B12, “binds”. Under B13 stands “binds”; under B14, “binds”.

As for B15, the binding result is listed as “binds”. With B16, the binding result was “binds”. As for B17, the binding result is listed as “binds”.

As for B18, the binding result is listed as “binds”.

Take B19: the binding result is reported as “binds”. With B20 the entry was “binds”; with B21, “binds”; with B22, “binds”.

As to B23, the binding result is reported as “binds”. Regarding B24, the binding result is given as “binds”. In the case of B25, the binding result was “binds”. As to B26, the binding result is reported as “binds”. Under B27 stands “binds”.

On to B28, for which the binding result is on record as “binds”. Under B29 stands “binds”; under B30, “binds”. As to B31, the binding result is on record as “binds”. With B32 the entry was “binds”; with B33, “binds”. With B34 the entry was “binds”.

For the origin of these results see article PMC7642358 (Nature Communications, 2020).
